Assay results reported in US20260256915A1 (published 2026).
Where a chain is given by its changes, count along the chain named.

T1: PRAME peptide on HLA-A*02:01 (human)
T1 peptide: SLLQHLIGL

B1: nwTCR-2169 (TCR, V domains shown)
Valpha: SQQGEEDPQALSIQEGENATMNCSYKTSINNLQWYRQNSGRGLVHLILIRSNEREKHSGRLRVTLDTSKKSSSLLITASRAADTASYFCATLTLNDYKLSFGAGTTVTVRA
Vbeta: EAQVTQNPRYLITVTGKKLTVTCSQNMNHEYMSWYRQDPGLGLRQIYYSMNVEVTDKGDVPEGYKVSRKEKRNFPLILESPSPNQTSLYFCATQWASGSTDTQYFGPGTRLTVL
B2: nwTCR-2228 (TCR, V domains shown)
Valpha: QKEVEQNSGPLSVPEGAIASLNCTYSDRGSQSFFWYRQYSGKSPELIMFIYSNGDKEDGRFTAQLNKASQYVSLLIRDSQPSDSATYLCAGHTGNQFYFGTGTSLTVIP
Vbeta: EPEVTQTPSHQVTQMGQEVILRCVPISNHLYFYWYRQILGQKVEFLVSFYNNEISEKSEIFDDQFSVERPDGSNFTLKIRSTKLEDSAMYFCASREDGYEQYFGPGTRLTVT
B3: nwTCR-2170 (TCR, V domains shown)
Valpha: GQQLNQSPQSMFIQEGEDVSMNCTSSSIFNTWLWYKQDPGEGPVLLIALYKAGELTSNGRLTAQFGITRKDSFLNISASIPSDVGIYFCAGQASGTYKYIFGTGTRLKVLA
Vbeta: EAQVTQNPRYLITVTGKKLTVTCSQNMNHEYMSWYRQDPGLGLRQIYYSMNVEVTDKGDVPEGYKVSRKEKRNFPLILESPSPNQTSLYFCASSSGTSDEQYFGPGTRLTVT
B4: nwTCR-2285 (TCR, V domains shown)
Valpha: KNEVEQSPQNLTAQEGEFITINCSYSVGISALHWLQQHPGGGIVSLFMLSSGKKKHGRLIATINIQEKHSSLHITASHPRDSAVYICALNSDSNYQLIWGAGTKLIIKP
Vbeta: B3 Vbeta with S93T, S95P, S98L, D99Y
B5: nwTCR-2719 (TCR, V domains shown)
Valpha: GIQVEQSPPDLILQEGANSTLRCNFSDSVNNLQWFHQNPWGQLINLFYIPSGTKQNGRLSATTVATERYSLLYISSSQTTDSGVYFCAVLAPGTYKYIFGTGTRLKVLA
Vbeta: B3 Vbeta with S95W, T97S, S98G, D99Y
B6: nwTCR-1954 (TCR, V domains shown)
Valpha: QKEVEQNSGPLSVPEGAIASLNCTYSDRGSQSFFWYRQYSGKSPELIMSIYSNGDKEDGRFTAQLNKASQYVSLLIRDSQPSDSATYLCAVLRSNDYKLSFGAGTTVTVRA
Vbeta: EAQVTQNPRYLITVTGKKLTVTCSQNMNHEYMSWYRQDPGLGLRQIYYSMNVEVTDKGDVPEGYKVSRKEKRNFPLILESPSPNQTSLYFCASSPGTSGNEQFFGPGTRLTVL
B7: nwTCR-2720 (TCR, V domains shown)
Valpha: SQQGEEDPQALSIQEGENATMNCSYKTSINNLQWYRQNSGRGLVHLILIRSNEREKHSGRLRVTLDTSKKSSSLLITASRAADTASYFCATDLSGAGSYQLTFGKGTKLSVIP
Vbeta: B6 Vbeta with P95L, S98G, G99F, N100G, Q102L, P106E, T108S
B8: nwTCR-2383 (TCR, V domains shown)
Valpha: B5 Valpha with L90M, A91P, P92S
Vbeta: B6 Vbeta with G96S, T97S, S98G, G99Y
B9: nwTCR-1953 (TCR, V domains shown)
Valpha: DAKTTQPNSMESNEEEPVHLPCNHSTISGTDYIHWYRQLPSQGPEYVIHGLTSNVNNRMASLAIAEDRKSSTLILHRATLRDAAVYYCILRAGGSGDKLTFGTGTRLAVRP
Vbeta: DTEVTQTPKHLVMGMTNKKSLKCEQHMGHRAMYWYKQKAKKPPELMFVYSYEKLSINESVPSRFSPECPNSSLLNLHLHALQPEDSALYLCASSQDPFWGAGELFFGEGSRLTVL
B10: nwTCR-2006 (TCR, V domains shown)
Valpha: AQSVTQLDSHVSVSEGTPVLLRCNYSSSYSPSLFWYVQHPNKGLQLLLKYTSAATLVKGINGFEAEFKKSETSFHLTKPSAHMSDAAEYFCVVSITGFQKLVFGTGTRLLVSP
Vbeta: GAVVSQHPSRVICKSGTSVKIECRSLDFQATTMFWYRQFPKQSLMLMATSNEGSKATYEQGVEKDKFLINHASLTLSTLTVTSAHPEDSSFYICSATEDNEKLFFGSGTQLSVL
B11: nwTCR-2583 (TCR, V domains shown)
Valpha: GQSLEQPSEVTAVEGAIVQINCTYQTSGFYGLSWYQQHDGGAPTFLSYNALDGLEETGRFSSFLSRSDSYGYLLLQELQMKDSASYFCALGTEDKIIFGKGTRLHILP
Vbeta: EAQVTQNPRYLITVTGKKLTVTCSQNMNHEYMSWYRQDPGLGLRQIYYSMNVEVTDKGDVPEGYKVSRKEKRNFPLILESPSPNQTSLYFCASRISLGANYGYTFGSGTRLTVV
B12: nwTCR-2081 (TCR, V domains shown)
Valpha: GEDVEQSLFLSVREGDSSVINCTYTDSSSTYLYWYKQEPGAGLQLLTYIFSNMDMKQDQRLTVLLNKKDKHLSLRIADTQTGDSAIYFCAESVGYGGSQGNLIFGKGTKLSVKP
Vbeta: KAGVTQTPRYLIKTRGQQVTLSCSPISGHRSVSWYQQTPGQGLQFLFEYFSETQRNKGNFPGRFSGRQFSNSRSEMNVSTLELGDSALYLCASSLEAGSFYEQYFGPGTRLTVT
B13: nwTCR-2614 (TCR, V domains shown)
Valpha: AQTVTQSQPEMSVQEAETVTLSCTYDTSENNYYLFWYKQPPSRQMILVIRQEAYKQQNATENRFSVNFQKAAKSFSLKISDSQLGDTAMYFCAFDNNARLMFGDGTQLVVKP
Vbeta: GAVVSQHPSWVICKSGTSVKIECRSLDFQATTMFWYRQFPKQSLMLMATSNEGSKATYEQGVEKDKFLINHASLTLSTLTVTSAHPEDSSFYICSATRDSSYNEQFFGPGTRLTVL
B14: nwTCR-2316 (TCR, V domains shown)
Valpha: TQLLEQSPQFLSIQEGENLTVYCNSSSVFSSLQWYRQEPGEGPVLLVTVVTGGEVKKLKRLTFQFGDARKDSSLHITAAQPGDTGLYLCAGVDNYGQNFVFGPGTRLSVLP
Vbeta: DAGVIQSPRHEVTEMGQEVTLRCKPISGHNSLFWYRQTMMRGLELLIYFNNNVPIDDSGMPEDRFSAKMPNASFSTLKIQPSEPRDSAVYFCASSIAALGFGELFFGEGSRLTVL
B15: nwTCR-1906 (TCR, V domains shown)
Valpha: RKEVEQDPGPFNVPEGATVAFNCTYSNSASQSFFWYRQDCRKEPKLLMSVYSSGNEDGRFTAQLNRASQYISLLIRDSKLSDSATYLCVVTQAGTALIFGKGTTLSVSS
Vbeta: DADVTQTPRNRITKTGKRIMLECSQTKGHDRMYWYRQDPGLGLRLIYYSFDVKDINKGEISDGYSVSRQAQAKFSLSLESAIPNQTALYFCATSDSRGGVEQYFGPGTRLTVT
B16: nwTCR-2523 (TCR, V domains shown)
Valpha: RKEVEQDPGPFNVPEGATVAFNCTYSNSASQSFFWYRQDCRKEPKLLMSVYSSGNEDGRFTAQLNRASQYISLLIRDSKLSDSATYLCVVNRGSQGNLIFGKGTKLSVKP
Vbeta: DAGVTQSPTHLIKTRGQQVTLRCSPKSGHDTVSWYQQALGQGPQFIFQYYEEEERQRGNFPDRFSGHQFPNYSSELNVNALLLGDSALYLCASSLVDYEQYFGPGTRLTVT
B17: nwTCR-2157 (TCR, V domains shown)
Valpha: QKEVEQNSGPLSVPEGAIASLNCTYSDRGSQSFFWYRQYSGKSPELIMFIYSNGDKEDGRFTAQLNKASQYVSLLIRDSQPSDSATYLCAVPGGTSYGKLTFGQGTILTVHP
Vbeta: DTAVSQTPKYLVTQMGNDKSIKCEQNLGHDTMYWYKQDSKKFLKIMFSYNNKELIINETVPNRFSPKSPDKAHLNLHINSLELGDSAVYFCASSQGISGNTIYFGEGSWLTVV
B18: nwTCR-2555 (TCR, V domains shown)
Valpha: AQSVSQHNHHVILSEAASLELGCNYSYGGTVNLFWYVQYPGQHLQLLLKYFSGDPLVKGIKGFEAEFIKSKFSFNLRKPSVQWSDTAEYFCAVKMDSSYKLIFGSGTRLLVRP
Vbeta: DGGITQSPKYLFRKEGQNVTLSCEQNLNHDAMYWYRQDPGQGLRLIYYSQIVNDFQKGDIAEGYSVSREKKESFPLTVTSAQKNPTAFYLCASLGLNYNEQFFGPGTRLTVL
B19: nwTCR-2159 (TCR, V domains shown)
Valpha: QQPVQSPQAVILREGEDAVINCSSSKALYSVHWYRQKHGEAPVFLMILLKGGEQKGHDKISASFNEKKQQSSLYLTASQLSYSGTYFCGTESGRGSTLGRLYFGRGTQLTVWP
Vbeta: DSGVTQTPKHLITATGQRVTLRCSPRSGDLSVYWYQQSLDQGLQFLIQYYNGEERAKGNILERFSAQQFPDLHSELNLSSLELGDSALYFCASSPWTSGSYEQYFGPGTRLTVT
B20: nwTCR-2286 (TCR, V domains shown)
Valpha: GQQLNQSPQSMFIQEGEDVSMNCTSSSIFNTWLWYKQDPGEGPVLLIALYKAGELTSNGRLTAQFGITRKDSFLNISASIPSDVGIYFCAGPEDDKIIFGKGTRLHILP
Vbeta: B19 Vbeta with T97L, S98Q, S100G, Y101N, Y104F, T114L
B21: nwTCR-2418 (TCR, V domains shown)
Valpha: DQQVKQNSPSLSVQEGRISILNCDYTNSMFDYFLWYKKYPAEGPTFLISISSIKDKNEDGRFTVFLNKSAKHLSLHIVPSQPGDSAVYFCAASGVRGQNFVFGPGTRLSVLP
Vbeta: B19 Vbeta with T97L, S98A, S100G, Y101R
B22: nwTCR-2718 (TCR, V domains shown)
Valpha: GQQLNQSPQSMFIQEGEDVSMNCTSSSIFNTWLWYKQDPGEGPVLLIALYKAGELTSNGRLTAQFGITRKDSFLNISASIPSDVGIYFCAGFSQGGSEKLVFGKGTKLTVNP
Vbeta: B19 Vbeta with S98A, S100G, Y101N, E102T, Q103I, P107E, T109S, R110W, T114V

Biological target: T1, PRAME peptide on HLA-A*02:01
Assay: multimer staining

Row | binding result | Binder
1 | recognises | B1
2 | recognises | B2
3 | recognises | B3
4 | recognises | B4
5 | recognises | B5
6 | recognises | B6
7 | recognises | B7
8 | recognises | B8
9 | recognises | B9
10 | recognises | B10
11 | recognises | B11
12 | recognises | B12
13 | recognises | B13
14 | recognises | B14
15 | recognises | B15
16 | recognises | B16
17 | recognises | B17
18 | recognises | B18
19 | recognises | B19
20 | recognises | B20
21 | recognises | B21
22 | recognises | B22
